Holding throughout (format): biochemical
For data set [1], the target named is T1, human α2M-IIa (Homo sapiens, UniProt P00734).
T1 construct: The formation of thrombin in clotting blood or plasma arises from prothrombin by an enzymatic controlled reaction
The data set can be described thus: Amidolytic activity of human α2M-IIa towards OA-S2288 (pNA release, OD 405 nm). The procedure:
(§1) The amidolytic activity of human thrombin and human α2M-IIa towards OA-S2288 was measured. The reaction mixtures contained 22 μM OA-S2288, 50 nM thrombin or α2M-IIa and 175 mM NaCl, 50 mM Tris-HCl, 2 mg/ml ovalbumin (pH 7.9).
(§2) In FIG. 2 the amount of free p-nitroanilide (pNA) formed, expressed as milli optical density at 405 nm, is plotted against the time. The reaction temperature was 37° C. The grey curves are the measured data, whereas the black line is obtained by fitting, assuming that product formation occurs according to Michaelis-Menten kinetics.
(§3) Product formation in time can be described as: E.kcat. St/(Km+St), in which St is the substrate concentration in time (i.e. the substrate concentration originally present (S0) minus the formed product or split substrate, and E is the enzyme that splits the substrate, either thrombin or α2M-IIa.

In data set [2] the target is T2, human thrombin (Homo sapiens, UniProt P00734).
T2 construct: The formation of thrombin in clotting blood or plasma arises from prothrombin by an enzymatic controlled reaction
The data set can be described thus: Amidolytic activity of human thrombin towards OA-S2288 (pNA release, OD 405 nm). The following applies: Michaelis-Menten fit. The procedure:
as §1, §2, §3

Data set [3] has as its target T1, human α2M-IIa. The data set can be described thus: Hydrolysis of OA-AR-AMC by thrombin inactivated by α2M (AMC fluorescence). The procedure: (§4) The assay was carried out at 25° C. in 96 well Microfluor W “U” bottomed micro titre plates (Dynex, London, UK) in 10 mM HEPES, 5 mM CaCl2, 0.02% sodium azide, pH 8.0). In case of -∘- the vessel contained 5.5 μM OA-AR-AMC (Ala-Arg-AMC coupled to ovalbumin) and 85 nM human thrombin and in case of -∇-5.5 μM OA-AR-AMC and 65 μM human α2M-IIa. The black symbols (-●- and -▾-) were obtained by fitting assuming that the substrate is hydrolysed by thrombin according to Michaelis-Menten kinetics. […] For hydrolysis by α2M-IIa the already derived S0 and Km were found and kcat=0.008 s^−1.

For data set [4], the target named is T2, human thrombin. The data set can be described thus: Hydrolysis of OA-AR-AMC by free thrombin (AMC fluorescence). To be noted: 5.5 μM OA-AR-AMC, 85 nM human thrombin, 25° C., pH 8.0, Michaelis-Menten fit. The procedure: as §4

As a reminder, the kcat is the maximal rate divided by the concentration of active sites. What is called Km is the substrate concentration at which the rate is half of its maximum.

For the substance “ovalbumin coupled to H-D-isoleucyl-L-prolyl-L-arginine-p-nitroanilide.2HCl [OA-S2288]”, the kcat with human α2M-IIa [1] (E is α2M-IIa, 22 μM OA-S2288, 50 nM enzyme, 37° C., Michaelis-Menten fit) was 0.002 s⁻¹; with human thrombin [2] (E is thrombin, 22 μM OA-S2288, 50 nM enzyme, 37° C.), 0.31 s⁻¹. Besides, the “hydrolysis by α2M-IIa (in words)” value at human α2M-IIa [1] (ovalbumin coupled to S2288) is “loses its ability to be hydrolysed by α2M-IIa, but not by thrombin”. Also, in the data set with human thrombin [2] (22 μM OA-S2288, 50 nM thrombin, pH 7.9, 37° C.), the Km was found to be 1.47 µM.

On to “ovalbumin coupled to H-alanyl-L-arginine-7-amido-4-methyl-coumarin [OA-AR-AMC]”, for which the catalytic constant (kcat) amounted to 0.008 s⁻¹ in the data set with human α2M-IIa [3] (5.5 μM OA-AR-AMC, 65 μM human α2M-IIa, 25° C., pH 8.0, Michaelis-Menten fit) and 3.3 s⁻¹ with human thrombin [4]. The Michaelis constant (Km) with human α2M-IIa [3] (hydrolysis by α2M-IIa, the already derived S0 and Km) came out at 1.2 µM; with human thrombin [4] it was 1.2 µM. The “hydrolysis by thrombin entrapped in α2M (in words)” value on human α2M-IIa [3] (ovalbumin coupled to Ala-Arg-AMC) is recorded as “will not be split anymore by thrombin entrapped in the cavity of α2M”.

These data come from US6740496B1, “Determination of biologically active forms of proteolytic enzymes” (Synapse B.V., priority 1999, dated 2004).
